# Results taken from article PMC11358013, “FANCD2–FANCI surveys DNA and recognizes double- to single-stranded junctions” (Nature, 2024).
# B1: ybbR-tagged full-length Gallus gallus FANCI labelled with Cy5 (natural protein, UniProt B0I564 1-1338, looked up)
# chain: MAQRILQLAAEGSPERLQEALQGLTEGELGDMVTRQALRGRETAALLKGIFKGSPCSQQSGVLRRLQVYKHCVSLVESGDLHVGKVSEIIGLLMLEARQLPGHALAELATLFVEVIKRGSLSNGKSLELFSTVLTALSNSKESLAYGKGELNGEEFKKQLINTLCSSKWDPQCVIHLANMFRDIPLSGEELQFVVEKVLRMFSKLDLQEIPPLVYQLLLLSAKGSKKTVLEGIISFFNQLDKRQKEEQRVPQSADLEVATVPLDQLRHVEGTVILHIVSAINLDQDIGEELIKHLKTEQQKDPGKALCPFSVSLLLSTAVKHRLQEQIFDFLKTSITRSCKDLQILQASKFLQDLCPQQYDVTAVILEVVKNSAFGWDHVTQGLVDLGFSLMESYEPKKSFGGKAAETNLGLSKMPAQQACKLGASILLETFKVHEPIRSDILEQVLNRVLTKAASPVSHFIDLLSNIVVSAPLVLQNSSSRVTETFDNLSFLPIDTVQGLLRAVQPLLKVSMSVRDSLILVLQKAIFSRQLDARKAAVAGFLLLLRNFKILGSLTSSQCSQAIGATQVQADVHACYNSAANEAFCLEILGSLRRCLSQQADVRLMLYEGFYDVLRRNSQLASSIMETLLSQIKQYYLPQQDLLPPLKLEGCIMAQGDQIFLQEPLAHLLCCIQHCLAWYKSTVHLCKGAEDEEEEEDVGFEQNFEEMLESVTRRMIKSELEDFELDKSADFSPSSGVGVKNNIYAIQVMGICEVLIEYNFKIGNFSKNKFEDVLGLFTCYNKLSEILKEKAGKNKSTLGNRIARSFLSMGFVSTLLTALFRDNAQSHEESLAVLRSSTEFMRYAVSVALQKVQQLEEMGQTDGPDGQNPEKMFQNLCKITRVLLWRYTSIPTAVEESGKKKGKSISLLCLEGLLRIFNTMQQLYAARIPQFLQALDITDGDAEEADINVTEKAAFQIRQFQRSLVNQLSSAEDDFNSKETQLLITILSTLSKLLDPGSQQFLQFLTWTVKICKENALEDLSCCKGLLTLLFSLHVLYKSPVSLLRELAQDIHACLGDIDQDVEIESRSHFAIVNVKTAAPTVCLLVLGQADKVLEEVDWLIKRLTILGSDTSEDSTQASNQTQALEKGVILQLGTLLTVFHELVQTALPAGSCVDSLLRSLSKTYAILTSLIKHYIQACRSTSNTVPGRLEKLVKLSGSHLTPQCYSFITYVQNIHSESLSFAEEKKKKKKEDETAVVSTVMAKVLRDTKPIPNLIFAIEQYEKFLIHLSKKSKVNLMQYMKLSTSRDFRINASMLDSVLQEQNTEDAENEPDNNQSGTAEQPDENQEPQKKRRRKK
# modifications: modified Cy5 (LD655-CoA) conjugated to the carboxyl-terminal ybbR tag
# notes: FANCI, Gallus gallus, full-length; C-terminal extension with a 3C protease site and 6xHis-tag before the ybbR tag; also called FANCI-Cy5; FANCI-ybbR; source: Sf9, purified (HisTrap, heparin, Superdex 200), labelled with SFP synthase and gel filtered
# What was measured:
# [1] = biological target: T1, Cy3 labelled monoubiquitinated Gallus gallus FANCD2_ybbR (Gallus gallus | , UniProt Q68Y81 1-1439; P0CG48 1-76, monoubiquitinated with His-tagged ubiquitin; Cy3 (LD555-CoA) conjugated to the ybbR tag | joined to a lysine of FANCD2); experiment: single-molecule two-colour confocal imaging on optically trapped DNA; ubD2–I formed by incubating purified ubFANCD2 and FANCI with relaxed, optically trapped λ DNA (less than 1 pN), then moved to the protein-free channel; kymographs at 15 pN; conditions: both partners purified
# T1 construct: FANCD2, Gallus gallus, full-length ybbR-tagged construct as in m3; ubiquitin, His-tagged, bought from Enzo Life Sciences; also called ubFANCD2; ubFANCD2_ybbR; copies: 1 + 1
# [2] = biological target: T2, ybbR-tagged full-length Gallus gallus FANCD2 labelled with Cy3 (Gallus gallus, UniProt Q68Y81 1-1439, modified Cy3 (LD555-CoA) conjugated to the carboxyl-terminal ybbR tag); experiment: single-molecule two-colour confocal imaging on optically trapped DNA; 5 nM labelled D2–I loaded on λ DNA held between beads, imaged in the protein-free channel; 20 mM HEPES pH 7.5, 75 mM NaCl, 0.5 mg/ml BSA, 1 mM TCEP; 22 °C; conditions: both partners purified
# T2 construct: FANCD2, Gallus gallus, codon-optimized full-length construct; also called FANCD2-Cy3; FANCD2-ybbR; source: Sf9, purified (Strep-Tactin, heparin, Superdex 200), labelled with SFP synthase and gel filtered
binder,measurement,setting,value
B1,binding result,[1],binds
same,binding result,[2],binds
